Measurements: US20020086331

Target: T1, Nit domain of C. elegans NitFhit, O76463
T1 chain: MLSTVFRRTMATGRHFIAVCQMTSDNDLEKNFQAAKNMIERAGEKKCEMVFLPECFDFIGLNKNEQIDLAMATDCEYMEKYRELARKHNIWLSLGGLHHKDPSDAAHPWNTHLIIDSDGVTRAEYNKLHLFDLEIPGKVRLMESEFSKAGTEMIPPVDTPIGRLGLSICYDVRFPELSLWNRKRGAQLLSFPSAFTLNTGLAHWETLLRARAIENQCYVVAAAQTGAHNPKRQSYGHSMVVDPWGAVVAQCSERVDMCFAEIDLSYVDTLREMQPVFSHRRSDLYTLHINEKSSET

B1: Fhit domain of C. elegans NitFhit (protein)
chain: GGLKFARFNIPADHIFYSTPHSFVFVNLKPVTDGHVLVSPKRVVPRLTDLTDAETADLFIVAKKVQAMLEKHHNVTSTTICVQDGKDAGQTVPHVHIHILPRRAGDFGDNEIYQKLASHDKEPERKPRSNEQMAEEAVVYRNLM
  activity of worm NitFhit on ApppBODIPY relative to human Fhit (kcat/Km): worm NitFhit displays only 22% of the activity of human Fhit on ApppBODIPY
  activity of worm NitFhit on GpppBODIPY relative to human Fhit (kcat/Km): it displays 109% of the activity of human Fhit on GpppBODIPY
